How the values were obtained:
[1] = target: T1, human Siglec-3 (CD33) on cells (human, UniProt P20138 18-364); test: flow cytometry, APC-conjugated antibody titrated on human monocytes (endogenous Siglec-3)
T1 construct: whole, on cells; also called human endogenous or exogenous Siglec-3
Experimental: (§1) For establishment of titration curves, human monocytes and moDCs (3×10⁴) were incubated with the indicated concentrations of the APC-conjugated anti-Siglec-3 antibodies 4H3-3A, 10C8, as well as hIgG1 control, and analyzed by a flow cytometry instrument (FACSVerse; BD Biosciences). Mean fluorescence intensity (MFI) was analyzed by a software FlowJo (TreeStar, Inc.).

[2] = target: T1, human Siglec-3 (CD33) on cells; test: flow cytometry, APC-conjugated antibody titrated on human monocyte-derived dendritic cells (endogenous Siglec-3)
Experimental: as §1

[3] = target: T2, human CD33.Fc (recombinant extracellular domain of human Siglec-3 fused with Fc portion of hIgG1) (human, UniProt P20138 18-259); test: SPR (BIAcore 2000), human CD33.Fc immobilized on CM5 chip
T2 construct: extracellular domain; also called Siglec-3.Fc; not shown: Fc portion of human IgG1
T2 sequence (P20138 18-259): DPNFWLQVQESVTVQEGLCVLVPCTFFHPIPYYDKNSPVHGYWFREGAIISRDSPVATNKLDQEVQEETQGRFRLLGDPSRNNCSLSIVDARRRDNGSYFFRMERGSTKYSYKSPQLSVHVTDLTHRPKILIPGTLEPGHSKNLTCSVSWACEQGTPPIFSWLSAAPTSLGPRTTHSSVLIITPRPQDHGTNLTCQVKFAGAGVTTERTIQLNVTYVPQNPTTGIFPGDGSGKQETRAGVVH
Experimental: Human IgG1 was first mobilized on channel one of a CM5 chip as the blank to determine the bulk effect of injection itself, whereas human CD33.Fc were immobilized on channel two for analysis of its kinetic interaction with wild various clones of anti-CD33 mAbs, respectively. The interaction between […] and anti-CD33 mAbs was determined by surface plasmon resonance using a Biacore instrument (BIAcore 2000).

[4] = target: T3, mouse Siglec-3 expressed in HEK-293T cells (mouse, UniProt Q63994 17-403); test: flow cytometry, antibody titrated on HEK-293T cells expressing exogenous mouse Siglec-3
T3 construct: whole, on cells
T3 sequence (looked up): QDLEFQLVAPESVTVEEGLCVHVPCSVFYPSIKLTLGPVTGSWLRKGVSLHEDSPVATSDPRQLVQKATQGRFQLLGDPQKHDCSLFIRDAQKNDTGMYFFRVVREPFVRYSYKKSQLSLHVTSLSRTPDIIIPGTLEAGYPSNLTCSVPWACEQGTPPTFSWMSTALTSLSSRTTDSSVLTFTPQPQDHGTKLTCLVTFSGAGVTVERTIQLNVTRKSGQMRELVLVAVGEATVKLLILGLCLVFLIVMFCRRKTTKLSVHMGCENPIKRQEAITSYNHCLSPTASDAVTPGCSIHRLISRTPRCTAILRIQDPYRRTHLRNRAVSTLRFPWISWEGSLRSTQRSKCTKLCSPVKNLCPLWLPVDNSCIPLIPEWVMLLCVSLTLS

[5] = target: T1, human Siglec-3 (CD33) on cells; test: flow cytometry on moDCs (data not shown)

T1 sequence (P20138 18-364): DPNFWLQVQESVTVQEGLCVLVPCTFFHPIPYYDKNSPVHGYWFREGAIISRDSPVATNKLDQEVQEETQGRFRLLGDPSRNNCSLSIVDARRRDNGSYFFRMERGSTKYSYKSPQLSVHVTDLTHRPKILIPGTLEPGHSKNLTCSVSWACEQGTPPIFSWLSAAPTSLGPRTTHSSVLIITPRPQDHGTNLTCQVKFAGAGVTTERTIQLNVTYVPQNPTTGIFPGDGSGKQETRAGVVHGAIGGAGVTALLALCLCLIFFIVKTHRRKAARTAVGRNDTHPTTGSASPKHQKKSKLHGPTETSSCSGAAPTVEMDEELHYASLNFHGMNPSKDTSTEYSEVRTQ

B1: 1H3-3A (antibody, human IgG1, kappa)
light chain: DGTDIQMTQSPSSLSASVGDRVTITCRASQDVYGYVAWYQQKPGKAPKLLISYTPGLYSGVPSRFSGSGSGTDFTLTISSLQPEDFATYYCQQYYDFPITFGQGTKVEIKRTVAAPSVFIFPPSDEQLKSGTASVVCLLNNFYPREAKVQWKVDNALQSGNSQESVTEQDSKDSTYSLSSTLTLSKADYEKHKVYACEVTHQGLSSPVTKSFNRGEC
heavy chain: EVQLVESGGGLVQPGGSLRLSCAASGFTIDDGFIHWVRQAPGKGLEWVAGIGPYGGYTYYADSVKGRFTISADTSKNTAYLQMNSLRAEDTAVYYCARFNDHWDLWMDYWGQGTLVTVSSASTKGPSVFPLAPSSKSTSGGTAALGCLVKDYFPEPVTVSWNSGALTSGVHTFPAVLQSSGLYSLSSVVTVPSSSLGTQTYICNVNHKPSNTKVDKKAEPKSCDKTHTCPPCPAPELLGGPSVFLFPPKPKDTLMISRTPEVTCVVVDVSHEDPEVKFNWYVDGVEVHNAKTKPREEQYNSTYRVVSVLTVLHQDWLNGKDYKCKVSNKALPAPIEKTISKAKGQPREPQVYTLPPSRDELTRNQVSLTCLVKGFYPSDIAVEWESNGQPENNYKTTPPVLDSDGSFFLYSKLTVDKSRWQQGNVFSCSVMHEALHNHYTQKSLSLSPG
**Q.** Which “EC50 (read off the curve)” value [1] does the source give for B1 here?
**A.** ~100 nM

**Q.** And the “EC50 (read off the curve)” value [2]?
**A.** ~30 nM

B2: anti-Siglec-3 antibody 4H3-3A (scFv clone H3-3A reformatted into hIgG4) (antibody)
heavy: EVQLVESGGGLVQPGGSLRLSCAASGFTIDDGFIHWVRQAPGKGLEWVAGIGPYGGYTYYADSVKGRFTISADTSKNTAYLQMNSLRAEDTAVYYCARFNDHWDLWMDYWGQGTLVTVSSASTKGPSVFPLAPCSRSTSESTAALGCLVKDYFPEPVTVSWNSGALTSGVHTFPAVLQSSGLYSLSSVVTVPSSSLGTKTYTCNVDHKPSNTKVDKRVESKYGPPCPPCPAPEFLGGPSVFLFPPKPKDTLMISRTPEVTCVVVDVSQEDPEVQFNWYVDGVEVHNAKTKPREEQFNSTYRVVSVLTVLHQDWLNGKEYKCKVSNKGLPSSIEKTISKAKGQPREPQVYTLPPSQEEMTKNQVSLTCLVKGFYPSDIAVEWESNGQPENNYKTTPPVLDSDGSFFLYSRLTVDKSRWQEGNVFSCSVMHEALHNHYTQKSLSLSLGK
light: DGTDIQMTQSPSSLSASVGDRVTITCRASQDVYGYVAWYQQKPGKAPKLLISYTPGLYSGVPSRFSGSGSGTDFTLTISSLQPEDFATYYCQQYYDFPITFGQGTKVEIKRTVAAPSVFIFPPSDEQLKSGTASVVCLLNNFYPREAKVQWKVDNALQSGNSQESVTEQDSKDSTYSLSSTLTLSKADYEKHKVYACEVTHQGLSSPVTKSFNRGEC
notes: Human IgG4 format
**Q.** For B2, which Kd [3] is on record?
**A.** 8.88 nM

**Q.** And the koff [3]?
**A.** 0.0373 s⁻¹

**Q.** What about the kon [3] of the same binder?
**A.** 4.21e+06 M⁻¹ s⁻¹

**Q.** Does B2 bind [4]?
**A.** no binding

B3: anti-Siglec-3 antibody 10C8 (antibody, V domains shown)
VH: EVQLVESGGGLVQPGGSLRLSCAASGFTINNGWIHWVRQAPGKGLEWVAGIGPYGGSTFYADSVKGRFTISADTSKNTAYLQMNSLRAEDTAVYYCSRFIGSYSHMDYWGQGTLVTVSS
VL: DIQMTQSPSSLSASVGDRVTITCRASQDVYYYVAWYQQKPGKAPKLLISSAGGLYSGVPSRFSGSGSGTDFTLTISSLQPEDFATYYCQQYFNFPLTFGQGTKVEIKR
**Q.** B3 was tested. Which “EC50 (read off the curve)” value [1] did it give?
**A.** ~200 nM

B4: anti-Siglec-3 antibody S3H1-85 reformatted into human IgG1 or IgG4 (antibody, V domains shown)
VH: VQLVESGGGLVQPGGSLRLSCAASGFTIGSGWIHWVRQAPGKGLEWVAGIGPYGGYTYYADSVKGRFTISADTSKNTAYLQMNSLRAEDTAVYYCARFNDHWDLWMDYWGQGTLVTVSS
VL: DIQMTQSPSSLSASVGDRVTITCRASQDVYGYVAWYQQKPGKAPKLLISYTPGLYSGVPSRFSGSGSGTDFTLTISSLQPEDFATYYCQQYYDFPITFGQGTKVEIKR
notes: also called 1S3H1-85; 4S3H1-85
**Q.** Does B4 bind [5]?
**A.** binds

B5: anti-Siglec-3 antibody H3-10E reformatted into human IgG1 or IgG4 (antibody, V domains shown)
VH: VQLVESGGGLVQPGGSLRLSCAASGFTIDDGFIHWVRQAPGKGLEWVAGIGPYGGYTYYADSVKGRFTISADTSKNTAYLQMNSLRAEDTAVYYCARFQNSPTKTMDYWGQGTLVTVSS
VL: DIQMTQSPSSLSASVGDRVTITCRASQDVYGYVAWYQQKPGKAPKLLISYTPGLYSGVPSRFSGSGSGTDFTLTISSLQPEDFATYYCQQYYDFPITFGQGTKVEIKR
notes: also called 1H3-10E; 4H3-10E
**Q.** Does B5 bind [5]?
**A.** binds

B6: anti-Siglec-3 antibody S3H2-10 reformatted into human IgG1 or IgG4 (antibody, V domains shown)
VH: VQLVESGGGLVQPGGSLRLSCAASGFTIDDGFIHWVRQAPGKGLEWVAAIPPLQGKTYYADSVKGRFTISADTSKNTAYLQMNSLRAEDTAVYYCARFNDHWDLWMDYWGQGTLVTVSS
VL: DIQMTQSPSSLSASVGDRVTITCRASQDVYGYVAWYQQKPGKAPKLLISYTPGLYSGVPSRFSGSGSGTDFTLTISSLQPEDFATYYCQQYYDFPITFGQGTKVEIKR
notes: also called 1S3H2-10; 4S3H2-10
**Q.** Does B6 bind [5]?
**A.** binds

B7: anti-Siglec-3 antibody S3PL3-46 reformatted into human IgG1 or IgG4 (antibody, V domains shown)
VH: VQLVESGGGLVQPGGSLRLSCAASGFTIDDGFIHWVRQAPGKGLEWVAGIGPYGGYTYYADSVKGRFTISADTSKNTAYLQMNSLRAEDTAVYYCARFNDHWDLWMDYWGQGTLVTVSS
VL: DIQMTQSPSSLSASVGDRVTITCRASQDVYGYVAWYQQKPGKAPKLLISYTPGLYSGVPSRFSGSGSGTDFTLTISSLQPEDFATYYCQQYSRMPITFGQGTKVEIKR
notes: also called 1S3PL3-46; 4S3PL3-46
**Q.** Does B7 bind [5]?
**A.** binds

B8: anti-Siglec-3 antibody H3-8F reformatted into human IgG1 or IgG4 (antibody, V domains shown)
VH: VQLVESGGGLVQPGGSLRLSCAASGFTIDDGFIHWVRQAPGKGLEWVAGIGPYGGYTYYADSVKGRFTISADTSKNTAYLQMNSLRAEDTAVYYCARFRDTQSQTMDYWGQGTLVTVSS
VL: DIQMTQSPSSLSASVGDRVTITCRASQDVYGYVAWYQQKPGKAPKLLISYTPGLYSGVPSRFSGSGSGTDFTLTISSLQPEDFATYYCQQYYDFPITFGQGTKVEIKR
notes: also called 1H3-8F; 4H3-8F
**Q.** Does B8 bind [5]?
**A.** binds

B9: anti-Siglec-3 antibody S3H1-74 reformatted into human IgG1 or IgG4 (antibody, V domains shown)
VH: VQLVESGGGLVQPGGSLRLSCAASGFTIHGSWIHWVRQAPGKGLEWVAGIGPYGGYTYYADSVKGRFTISADTSKNTAYLQMNSLRAEDTAVYYCARFNDHWDLWMDYWGQGTLVTVSS
VL: DIQMTQSPSSLSASVGDRVTITCRASQDVYGYVAWYQQKPGKAPKLLISYTPGLYSGVPSRFSGSGSGTDFTLTISSLQPEDFATYYCQQYYDFPITFGQGTKVEIKR
notes: also called 1S3H1-74; 4S3H1-74
**Q.** Does B9 bind [5]?
**A.** binds

B10: anti-Siglec-3 antibody S3H1-76 reformatted into human IgG1 or IgG4 (antibody, V domains shown)
VH: VQLVESGGGLVQPGGSLRLSCAASGFTISSSYIHWVRQAPGKGLEWVAGIGPYGGYTYYADSVKGRFTISADTSKNTAYLQMNSLRAEDTAVYYCARFNDHWDLWMDYWGQGTLVTVSS
VL: DIQMTQSPSSLSASVGDRVTITCRASQDVYGYVAWYQQKPGKAPKLLISYTPGLYSGVPSRFSGSGSGTDFTLTISSLQPEDFATYYCQQYYDFPITFGQGTKVEIKR
notes: also called 1S3H1-76; 4S3H1-76
**Q.** Does B10 bind [5]?
**A.** binds

B11: anti-Siglec-3 antibody S3H1-29 reformatted into human IgG1 or IgG4 (antibody, V domains shown)
VH: VQLVESGGGLVQPGGSLRLSCAASGFTIHGSWIHWVRQAPGKGLEWVAGIGPYGGYTYYADSVKGRFTISADTSKNTAYLQMNSLRAEDTAVYYCARFNDHQDLWMDYWGQGTLVTVSS
VL: DIQMTQSPSSLSASVGDRVTITCRASQDVYGYVAWYQQKPGKAPKLLISYTPGLYSGVPSRFSGSGSGTDFTLTISSLQPEDFATYYCQQYYDFPITFGQGTKVEIKR
notes: also called 1S3H1-29; 4S3H1-29
**Q.** Does B11 bind [5]?
**A.** binds

B12: anti-Siglec-3 antibody S3H2-12 reformatted into human IgG1 or IgG4 (antibody, V domains shown)
VH: VQLVESGGGLVQPGGSLRLSCAASGFTIDDGFIHWVRQAPGKGLEWVATISPNTGHTNYADSVKGRFTISADTSKNTAYLQMNSLRAEDTAVYYCARFNDHWDLWMDYWGQGTLVTVSS
VL: DIQMTQSPSSLSASVGDRVTITCRASQDVYGYVAWYQQKPGKAPKLLISYTPGLYSGVPSRFSGSGSGTDFTLTISSLQPEDFATYYCQQYYDFPITFGQGTKVEIKR
notes: also called 1S3H2-12; 4S3H2-12
**Q.** Does B12 bind [5]?
**A.** binds

B13: anti-Siglec-3 antibody S3H2-8 reformatted into human IgG1 or IgG4 (antibody, V domains shown)
VH: VQLVESGGGLVQPGGSLRLSCAASGFTIDDGFIHWVRQAPGKGLEWVAAIKPRQGDTSYADSVKGRFTISADTSKNTAYLQMNSLRAEDTAVYYCARFNDHWDLWMDYWGQGTLVTVSS
VL: DIQMTQSPSSLSASVGDRVTITCRASQDVYGYVAWYQQKPGKAPKLLISYTPGLYSGVPSRFSGSGSGTDFTLTISSLQPEDFATYYCQQYYDFPITFGQGTKVEIKR
notes: also called 1S3H2-8; 4S3H2-8
**Q.** Does B13 bind [5]?
**A.** binds

B14: anti-Siglec-3 antibody H3-10F reformatted into human IgG1 or IgG4 (antibody, V domains shown)
VH: VQLVESGGGLVQPGGSLRLSCAASGFTIDDGFIHWVRQAPGKGLEWVAGIGPYGGYTYYADSVKGRFTISADTSKNTAYLQMNSLRAEDTAVYYCARFATHDQPLMDYWGQGTLVTVSS
VL: DIQMTQSPSSLSASVGDRVTITCRASQDVYGYVAWYQQKPGKAPKLLISYTPGLYSGVPSRFSGSGSGTDFTLTISSLQPEDFATYYCQQYYDFPITFGQGTKVEIKR
notes: also called 1H3-10F; 4H3-10F
**Q.** Does B14 bind [5]?
**A.** binds

B15: anti-Siglec-3 antibody H3-7G reformatted into human IgG1 or IgG4 (antibody, V domains shown)
VH: VQLVESGGGLVQPGGSLRLSCAASGFTIDDGFIHWVRQAPGKGLEWVAGIGPYGGYTYYADSVKGRFTISADTSKNTAYLQMNSLRAEDTAVYYCARFRDDKPQMMDYWGQGTLVTVSS
VL: DIQMTQSPSSLSASVGDRVTITCRASQDVYGYVAWYQQKPGKAPKLLISYTPGLYSGVPSRFSGSGSGTDFTLTISSLQPEDFATYYCQQYYDFPITFGQGTKVEIKR
notes: also called 1H3-7G; 4H3-7G
**Q.** Does B15 bind [5]?
**A.** binds

B16: anti-Siglec-3 antibody H3-9E reformatted into human IgG1 or IgG4 (antibody, V domains shown)
VH: VQLVESGGGLVQPGGSLRLSCAASGFTIDDGFIHWVRQAPGKGLEWVAGIGPYGGYTYYADSVKGRFTISADTSKNTAYLQMNSLRAEDTAVYYCARFGHPPYDYMDYWGQGTLVTVSS
VL: DIQMTQSPSSLSASVGDRVTITCRASQDVYGYVAWYQQKPGKAPKLLISYTPGLYSGVPSRFSGSGSGTDFTLTISSLQPEDFATYYCQQYYDFPITFGQGTKVEIKR
notes: also called 1H3-9E; 4H3-9E
**Q.** Does B16 bind [5]?
**A.** binds

From US20250136682A1 (ACADEMIA SINICA, published 2025)
